Results from patent US20120058906A1 (published 2012).
Substitutions are numbered along the chain they refer to.

How the values were obtained:
[1] = target: T1, rHuman P-Cadherin/Fc Chimera, CF (R&D Systems Cat#861-PC) (human, UniProt P22223 108-654); test: ECL (MSD multi-spot), antigen spotted on plate; Fab 176.3 nM; blank spot 346
T1 construct: Bought reagent; also called CDH3; Fc part of the bought chimera not given

[2] = target: T2, Recombinant Human DLL4 (R&D Systems Cat#1506-D4/CF) (human, UniProt Q9NR61 27-524); test: as above
T2 construct: Bought reagent; also called delta-like protein 4

[3] = target: T3, rHuman IGF-1 sR (IGF-1 sR), CF (R&D Systems Cat#391-GR) (human, UniProt P08069 31-932); test: as above
T3 construct: Bought soluble receptor; also called insulin-like growth factor-1 soluble receptor; IGF-R1

[4] = target: T4, rHuman ErbB2/Fc Chimera, CF (R&D Systems Cat#1129-ER) (human, UniProt P04626 23-652); test: as above
T4 construct: Bought reagent; also called HER2/neu; human epidermal growth factor 2 receptor; Fc part of the bought chimera not given

[5] = target: T5, rHuman Erythropoietin R/Fc Chimera, CF (R&D Systems Cat#963-ER) (human, UniProt P19235 25-250); test: as above
T5 construct: Bought reagent; also called EPO R/Fc; Epo R; Fc part of the bought chimera not given
T5 sequence: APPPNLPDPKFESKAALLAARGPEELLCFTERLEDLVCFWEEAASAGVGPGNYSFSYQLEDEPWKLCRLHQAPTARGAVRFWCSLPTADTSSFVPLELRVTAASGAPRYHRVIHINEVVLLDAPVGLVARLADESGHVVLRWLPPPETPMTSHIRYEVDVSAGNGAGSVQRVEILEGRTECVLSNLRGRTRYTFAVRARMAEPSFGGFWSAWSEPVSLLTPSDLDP

[6] = target: T6, rHuman EGF R/Fc Chimera, CF (R&D Systems Cat#344-ER) (human, UniProt P00533 25-645); test: as above
T6 construct: Bought reagent; also called epidermal growth factor receptor; Fc part of the bought chimera not given

[7] = target: T7, rHuman Notch-1/Fc Chimera, CF (R&D Systems Cat#3647-TK) (human, UniProt P46531 19-526); test: as above
T7 construct: Bought reagent; Fc part of the bought chimera not given

[8] = target: T8, Recombinant Human DLL4 (R&D Systems Cat#1506-D4/CF) (human, UniProt Q9NR61 27-524); test: ECL (MSD multi-spot), antigen on plate, Fab 0.4 nM
T8 construct: Bought recombinant protein; also called delta-like protein 4

[9] = target: T9, rHuman P-Cadherin/Fc Chimera, CF (R&D Systems Cat#861-PC) (human, UniProt P22223 108-654); test: ECL (MSD multi-spot), antigen on plate, Fab 0.4 nM
T9 construct: Bought Fc chimera; also called CDH3; not shown: Fc of the bought chimera

[10] = target: T10, rHuman Erythropoietin R/Fc Chimera, CF (R&D Systems Cat#963-ER) (human, UniProt P19235 25-250); test: ECL (MSD multi-spot), antigen on plate, Fab 0.4 nM
T10 construct: Bought Fc chimera; also called EPO R/Fc; Epo R; not shown: Fc of the bought chimera
T10 sequence: T5 sequence

[11] = target: T8, Recombinant Human DLL4 (R&D Systems …); test: ECL (MSD multi-spot), antigen on plate, Fab 50 nM
[12] = target: T11, rHuman CD44/Fc Chimera, CF (R&D Systems Cat#3660-CD) (human, UniProt P16070 21-220); test: ECL (MSD multi-spot), antigen on plate, Fab 50 nM
T11 construct: Bought Fc chimera; not shown: Fc of the bought chimera

[13] = target: T12, rHuman ErbB2/Fc Chimera, CF (R&D Systems Cat#1129-ER) (human, UniProt P04626 23-652); test: ECL (MSD multi-spot), antigen on plate, Fab 50 nM
T12 construct: Bought Fc chimera; also called HER2/neu; not shown: Fc of the bought chimera

[14] = target: T13, rHuman Notch-1/Fc Chimera, CF (R&D Systems Cat#3647-TK) (human, UniProt P46531 19-526); test: ECL (MSD multi-spot), antigen on plate, Fab 50 nM
T13 construct: Bought Fc chimera; not shown: Fc of the bought chimera

[15] = target: T14, rHuman HGF R/c-MET/Fc Chimera, CF (R&D Systems Cat#358-MT/CF) (human, UniProt P08581 25-932); test: ECL (MSD multi-spot), antigen on plate, Fab 50 nM
T14 construct: Bought Fc chimera; also called HGF R/Fc; not shown: Fc of the bought chimera

[16] = target: T15, rHuman EGF R/Fc Chimera, CF (R&D Systems Cat#344-ER) (human, UniProt P00533 25-645); test: ECL (MSD multi-spot), antigen on plate, Fab 50 nM
T15 construct: Bought Fc chimera; also called ErbB-1; not shown: Fc of the bought chimera

[17] = target: T9, rHuman P-Cadherin/Fc Chimera, CF (R&D …); test: ECL (MSD multi-spot), antigen on plate, Fab 50 nM
[18] = target: T16, rHuman IGF-1 sR (insulin-like growth factor-1 soluble receptor), CF (R&D Systems Cat#391-GR) (human, UniProt P08069 31-932); test: ECL (MSD multi-spot), antigen on plate, Fab 50 nM
T16 construct: Bought soluble receptor; also called IGF-R1

[19] = target: T10, rHuman Erythropoietin R/Fc Chimera, CF …; test: ECL (MSD multi-spot), antigen on plate, Fab 50 nM
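Note: blank spot per well as comparator with Hit at signal to blank ratio of 4 or more.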

B1: Fab VH1-46_IGHD3-10*01_IGHJ4*01 & B3_IGKJ1*01 (Fab, V domains shown)
VH: QVQLVQSGAEVKKPGASVKVSCKASGYTFTSYYMHWVRQAPGQGLEWMGIINPSGGSTSYAQKFQGRVTMTRDTSTSTVYMELSSLRSEDTAVYYCAREYYYGSGSYYNDYFDYWGQGTLVTVSS
VL: not shown
notes: also called IGHV1-46*01
- ECL signal [1]: 532
- ECL signal [2]: 460
- ECL signal [3]: 393
- ECL signal [4]: 448
- ECL signal [5]: 3520
- ECL signal [6]: 428
- ECL signal [7]: 664

B2: Fab VH1-46_IGHD6-6*01_IGHJ1*01_S102A_S103P_S104F & L6_IGKJ1*01_S30N (Fab, V domains shown)
VH: QVQLVQSGAEVKKPGASVKVSCKASGYTFTSYYMHWVRQAPGQGLEWMGIINPSGGSTSYAQKFQGRVTMTRDTSTSTVYMELSSLRSEDTAVYYCAREEYAPFSAEYFQHWGQGTLVTVSS
VL: EIVLTQSPATLSLSPGERATLSCRASQSVNSYLAWYQQKPGQAPRLLIYDASNRATGIPARFSGSGSGTDFTLTISSLEPEDFAVYYCQQRSNWPPWTFGQGTKVEIKR
notes: Fab
- ECL signal [8]: 1040 ECL signal
- ECL signal [9]: 111 ECL signal
- ECL signal [10]: 224 ECL signal

B3: Fab VH1-46_IGHD6-6*01_IGHJ1*01_S102A_S103P_S104F & L6_IGKJ1*01_S31K (Fab, V domains shown)
VH: B2 VH
VL: B2 VL with N30S, S31K
notes: Fab
- ECL signal [11]: 35300 ECL signal
- ECL signal [12]: 262 ECL signal
- ECL signal [13]: 397 ECL signal
- ECL signal [14]: 355 ECL signal
- ECL signal [15]: 257 ECL signal
- ECL signal [16]: 350 ECL signal
- ECL signal [17]: 411 ECL signal
- ECL signal [18]: 257 ECL signal
- ECL signal [19]: 574 ECL signal
